14 sequences from the supplement of paper PMC10724198 can be followed below.

± gives the standard deviation of the averaged measurements.

In the data set the test system is Saccharomyces cerevisiae. As to the kind of experiment: protein stability index of tFT-peptide fusion (C-terminal peptide) (PSI (0-1 scale)); higher = more stable (slower turnover). The procedure:
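MPS profiling in S. cerevisiae of the tFT-X12 degron library: putative degron peptides plus stable controls, 12 aa, fused to the C-terminus of a sfGFP-mCherry timer. Cells are FACS-sorted into 8 mCherry/sfGFP bins and deep-sequenced. PSI runs from 0 (unstable) to 1 (stable). Backgrounds are wild type, das1Δ and doa10Δ at 30 °C, and wild type, das1Δ, cdc34-1 and cdc53-1 at 37 °C; 2-3 technical replicates each.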

Setting [1] is: genetic background: cdc34-1, temperature: 37 C.
Setting [2] is: genetic background: cdc53-1, temperature: 37 C.
Where [3] appears, read: genetic background: das1 deletion, temperature: 30 C.
Where [4] appears, read: genetic background: das1 deletion, temperature: 37 C.
Where [5] appears, read: genetic background: doa10 deletion, temperature: 30 C.
[6] abbreviates: genetic background: wild type, temperature: 30 C.
Where [7] appears, read: genetic background: wild type, temperature: 37 C.
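Also: PSI is a weighted mean of sequencing reads over stability bins, variants kept only with over 10 reads, mCherry proximal and sfGFP distal, peptide attached via GGGS linker.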

As for APLPPPPASVPP, the protein stability index under setting [1] came out at 0.656 ± 0.076; the protein stability index under setting [2] is 0.7014 ± 0.0041; the protein stability index under setting [3] is 0.672 ± 0.015; the protein stability index under setting [4] came out at 0.711 ± 0.014; the protein stability index under setting [5] worked out at 0.65 ± 0.014; the protein stability index under setting [6] worked out at 0.649 ± 0.03. This sequence registered a protein stability index under setting [7] of 0.691 ± 0.0089.

With APPHPPPATFLS, the protein stability index by setting is: under setting [1], 0.643 ± 0.014; under setting [2], 0.732 ± 0.022; under setting [3], 0.685 ± 0.019; under setting [4], 0.721 ± 0.0092; under setting [5], 0.326 ± 0.032; under setting [6], 0.357 ± 0.026. This sequence registered a protein stability index under setting [7] of 0.574 ± 0.012.

Regarding DFWCIIVIFLFR, the protein stability index is, setting by setting: under setting [1], 0.221 ± 0.004; under setting [2], 0.348 ± 0.027; under setting [3], 0.248 ± 0.015; under setting [4], 0.393 ± 0.015; under setting [5], 0.225 ± 0.0077; under setting [6], 0.251 ± 0.031. This sequence also returned a protein stability index under setting [7] of 0.34 ± 0.0045.

As to EKKKKKRKNKIK, the protein stability index is, setting by setting: under setting [1], 0.691 ± 0.0098; under setting [2], 0.727 ± 0.037; under setting [3], 0.655 ± 0.024; under setting [4], 0.7221 ± 0.0038; under setting [5], 0.649 ± 0.016; under setting [6], 0.652 ± 0.025. Besides, the protein stability index under setting [7] came to 0.661 ± 0.028.

With FHSALIAIAAYV, the protein stability index reads like this: under setting [1], 0.135 ± 0.012; under setting [2], 0.128 ± 0.032; under setting [3], 0.201 ± 0.029; under setting [4], 0.2396 ± 0.00086; under setting [5], 0.162 ± 0.024; under setting [6], 0.202 ± 0.016. Under setting [7], the protein stability index worked out at 0.217 ± 0.0052.

LSLLILFVLLSF: the protein stability index under setting [1] worked out at 0.444 ± 0.014; the protein stability index under setting [2] was found to be 0.476 ± 0.016; the protein stability index under setting [3] was 0.355 ± 0.042; the protein stability index under setting [4] came out at 0.449 ± 0.023; the protein stability index under setting [5] amounted to 0.3914 ± 0.00083; the protein stability index under setting [6] was 0.385 ± 0.024. The sequence also came in with a protein stability index under setting [7] of 0.463 ± 0.039.

Sequence LVGYSVFVLFFS showed a protein stability index under setting [1] of 0.282 ± 0.015; a protein stability index under setting [2] of 0.5056 ± 0.0012; a protein stability index under setting [3] of 0.253 ± 0.034; a protein stability index under setting [4] of 0.498 ± 0.012; a protein stability index under setting [5] of 0.21 ± 0.0089; a protein stability index under setting [6] of 0.226 ± 0.048. The sequence also came in with a protein stability index under setting [7] of 0.426 ± 0.037.

In turn, PLPSRLRRFVPV came in with a protein stability index under setting [1] of 0.656 ± 0.05; a protein stability index under setting [2] of 0.701 ± 0.0078; a protein stability index under setting [3] of 0.595 ± 0.0072; a protein stability index under setting [4] of 0.7072 ± 0.0018; a protein stability index under setting [5] of 0.613 ± 0.018; a protein stability index under setting [6] of 0.62 ± 0.014. This sequence had a protein stability index under setting [7] of 0.6801 ± 0.0039.

On to PPCSLLPPPPAP, for which the protein stability index reads like this: under setting [1], 0.624 ± 0.049; under setting [2], 0.7196 ± 0.0057; under setting [3], 0.682 ± 0.043; under setting [4], 0.713 ± 0.0088; under setting [5], 0.715 ± 0.023; under setting [6], 0.674 ± 0.056. Under setting [7], this sequence yielded a protein stability index of 0.687 ± 0.024.

In turn, RGGVRGVRSGRG gave a protein stability index under setting [1] of 0.588 ± 0.016; a protein stability index under setting [2] of 0.716 ± 0.047; a protein stability index under setting [3] of 0.478 ± 0.014; a protein stability index under setting [4] of 0.565 ± 0.026; a protein stability index under setting [5] of 0.4741 ± 0.0046; a protein stability index under setting [6] of 0.485 ± 0.02. Besides, under setting [7], the protein stability index came to 0.631 ± 0.045.

As for SLTHTPLGVTRT, the protein stability index is, setting by setting: under setting [1], 0.657 ± 0.033; under setting [2], 0.748 ± 0.012; under setting [3], 0.6409 ± 0.0026; under setting [4], 0.72832 ± 0.00066; under setting [5], 0.635 ± 0.013; under setting [6], 0.642 ± 0.011. The sequence also had a protein stability index under setting [7] of 0.704 ± 0.0086.

TGGGGRVSLGVG had a protein stability index under setting [1] of 0.359 ± 0.066; a protein stability index under setting [2] of 0.416 ± 0.0099; a protein stability index under setting [3] of 0.356 ± 0.013; a protein stability index under setting [4] of 0.42 ± 0.0044; a protein stability index under setting [5] of 0.377 ± 0.0077; a protein stability index under setting [6] of 0.359 ± 0.016. The protein stability index under setting [7] is 0.413 ± 0.0088.

With TLDWKFGWGGIG, the protein stability index is, setting by setting: under setting [1], 0.603 ± 0.011; under setting [2], 0.579 ± 0.016; under setting [3], 0.566 ± 0.024; under setting [4], 0.6477 ± 0.0045; under setting [5], 0.5685 ± 0.002; under setting [6], 0.574 ± 0.021. Also, the protein stability index under setting [7] is 0.645 ± 0.018.

On to VLRFVYDLVSAL, for which the protein stability index came out at 0.559 ± 0.036 under setting [1]; 0.599 ± 0.011 under setting [2]; 0.531 ± 0.029 under setting [3]; 0.643 ± 0.036 under setting [4]; 0.334 ± 0.0067 under setting [5]; 0.342 ± 0.021 under setting [6]. Moreover, under setting [7], the protein stability index worked out at 0.435 ± 0.015.
